Measurements as given in patent US20120321619A1 (Bayer, published 2012).
Substitutions are numbered along the chain they refer to.

T1: human C4.4a natively expressed on tumor cell lines (human, UniProt O95274 31-326)
T1 construct: whole, on cells; also called NCI H292; NCI H322
T1 sequence (looked up): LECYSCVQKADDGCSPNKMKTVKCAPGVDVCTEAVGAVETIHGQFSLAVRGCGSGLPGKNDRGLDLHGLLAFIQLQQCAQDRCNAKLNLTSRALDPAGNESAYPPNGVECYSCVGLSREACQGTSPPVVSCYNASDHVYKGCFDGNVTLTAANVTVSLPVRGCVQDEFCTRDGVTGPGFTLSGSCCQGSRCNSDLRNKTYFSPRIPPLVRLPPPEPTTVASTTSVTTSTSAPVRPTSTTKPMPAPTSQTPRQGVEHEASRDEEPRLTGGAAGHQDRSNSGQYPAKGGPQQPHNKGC

T2: recombinant soluble human C4.4a (human, UniProt O95274 31-308)
T2 construct: recombinant, soluble, purified protein; also called hC4.4a; full length C4.4a
T2 sequence: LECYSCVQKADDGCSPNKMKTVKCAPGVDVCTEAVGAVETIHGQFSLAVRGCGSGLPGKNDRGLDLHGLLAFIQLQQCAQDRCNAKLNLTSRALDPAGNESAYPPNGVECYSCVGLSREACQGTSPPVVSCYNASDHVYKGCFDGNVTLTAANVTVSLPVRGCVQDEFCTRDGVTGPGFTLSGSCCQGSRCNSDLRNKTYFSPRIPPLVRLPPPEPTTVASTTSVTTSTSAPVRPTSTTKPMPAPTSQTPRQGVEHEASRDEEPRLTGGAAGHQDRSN

T3: recombinant soluble murine C4.4a (mouse, UniProt Q91YK8 33-343, limits assumed)
T3 construct: also called mouse C4.4a; mC4.4a
T3 sequence (looked up): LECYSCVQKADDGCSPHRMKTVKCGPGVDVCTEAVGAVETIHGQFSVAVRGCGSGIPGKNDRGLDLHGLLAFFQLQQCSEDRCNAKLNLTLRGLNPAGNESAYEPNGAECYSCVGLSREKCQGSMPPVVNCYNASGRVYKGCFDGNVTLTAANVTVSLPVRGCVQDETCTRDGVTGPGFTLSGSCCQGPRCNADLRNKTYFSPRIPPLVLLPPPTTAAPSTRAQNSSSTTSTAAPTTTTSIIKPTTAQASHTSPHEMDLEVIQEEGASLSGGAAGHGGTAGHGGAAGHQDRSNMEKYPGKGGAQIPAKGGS

T4: human C4.4a on transfected A549:hC4.4a cells (human, UniProt O95274 31-326)
T4 sequence: T1 sequence (looked up)

T5: murine C4.4a on transfected CHO-S:mC4.4a cells (mouse, UniProt Q91YK8 33-343)
T5 construct: full length GPI-anchored form, stably transfected; also called Mouse C4.4a:CHO; mC4.4a: CHO
T5 sequence: T3 sequence (looked up)

B1: B01-5 (antibody, human IgG1, V domains shown)
VH: EVQLLESGGGLVQPGGSLRLSCAASGFTFSNAWMSWVRQAPGKGLEWVSYISSSGSTIYYADSVKGRFTISRDNSKNTLYLQMNSLRAEDTAVYYCAREGLWAFDYWGQGTLVTVSS
VL: QSVLTQPPSVSGAPGQRVTISCTGSSSNIGAGYVVHWYQQLPGTAPKLLIYDNNKRPSGVPDRFSGSKSGTSASLAISGLRSEDEADYYCAAYDDSLSGPVFGGGTKLTVLG
notes: tested as human IgG1; also called B01-05
B2: B01-3 (antibody, human IgG1, V domains shown)
VH: B1 VH
VL: B1 VL with Q1E, Y93W, S96R, S98N
notes: tested as human IgG1; also called B01-03
B3: B01-10 (antibody, human IgG1, V domains shown)
VH: B1 VH with N31S
VL: B1 VL
notes: tested as human IgG1
B4: D02-6 (antibody, human IgG1, V domains shown)
VH: EVQLLESGGGLVQPGGSLRLSCAASGFTFSDYQMTWIRQTPGKGLEWVSGISWNGGSTHYADSVKGRFTISRDNSKNTLYLQMNSLRAEDTAVYYCAKGDYLVYSSYYFKSWGQGTLVTVSS
VL: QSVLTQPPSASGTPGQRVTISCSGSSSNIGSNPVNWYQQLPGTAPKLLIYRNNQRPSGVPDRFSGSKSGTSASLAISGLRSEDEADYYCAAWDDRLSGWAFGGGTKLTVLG
notes: tested as human IgG1; also called D02-06
B5: D02-11 (antibody, V domains shown)
VH: B4 VH
VL: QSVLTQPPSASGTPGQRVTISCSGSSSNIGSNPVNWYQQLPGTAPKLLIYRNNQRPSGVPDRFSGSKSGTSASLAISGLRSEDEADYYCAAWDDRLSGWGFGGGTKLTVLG
notes: tested as human IgG1
B6: D02-7 (antibody, human IgG1, V domains shown)
VH: B4 VH with S105K
VL: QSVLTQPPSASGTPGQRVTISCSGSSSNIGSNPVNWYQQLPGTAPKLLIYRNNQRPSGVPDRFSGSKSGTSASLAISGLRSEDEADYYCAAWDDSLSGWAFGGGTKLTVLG
notes: tested as human IgG1; also called D02-07
B7: D02-13 (antibody, human IgG1, V domains shown)
VH: B4 VH with D31S, T40A, S105K
VL: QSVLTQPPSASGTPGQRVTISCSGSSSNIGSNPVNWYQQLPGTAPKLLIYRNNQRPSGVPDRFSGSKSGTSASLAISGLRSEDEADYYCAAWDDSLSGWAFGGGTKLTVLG
notes: tested as human IgG1
B8: B01-12 (antibody, V domains shown)
VH: B1 VH with N31S, T57S, I58T, Y106K
VL: B1 VL with V10A, A13T, T23S, K55Q, Y93F, S96R
notes: tested as human IgG1
B9: D02-4 (antibody, human IgG1, V domains shown)
VH: B4 VH with S106A, K110D
VL: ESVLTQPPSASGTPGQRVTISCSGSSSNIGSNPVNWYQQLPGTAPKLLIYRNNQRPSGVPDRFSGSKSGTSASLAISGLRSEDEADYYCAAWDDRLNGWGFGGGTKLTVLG
notes: tested as human IgG1; also called D02-04

Each binder was assayed against T1, human C4.4a natively expressed on tumor … (assay: FACS titration of IgG1 on NCI H292 cells).
Method: FACS titration was performed in a 96 well microtiter plate, in which serial dilutions of the primary antibody in a volume of 50 W of FACS buffer (3% FCS, in PBS) were mixed with 50 μl of a cell suspension consisting of 2×10^5 cells/ml which had been detached with Cell Dissociation Solution (1×) Non-enzymatic (Sigma), and resuspended in FACS buffer. Incubation was performed at 4° C. for 1 hour with agitation. Cells were pelleted, washed with FACS buffer and resuspended in 100 μl/well of Phycoerythrin labeled goat anti human IgG (Dianova) solution in FACS buffer. Incubation and washing was performed as before. Analysis of cell-bound antibodies was done at the respective detection wavelength using the FACS Array device. EC₅₀ values were determined from fluorescence medians of duplicates using Swift 8.0 software.
For B1, the EC50 was 0.05 nM. With B2 the EC50 was 0.06 nM. Work on B3 yielded an EC50 of 0.1 nM. With B4 the EC50 was 0.02 nM. Work on B5 yielded an EC50 of 0.01 nM. With B6 the EC50 was 0.03 nM. B7 showed an EC50 of 0.12 nM.

The binders below were run against T2, recombinant soluble human C4.4a (assay: SPR (Biacore T100), IgG1 captured by anti-human Fc, soluble C4.4a injected, 1:1 fit).
Method: (§1) Binding affinities of anti C4.4 antibodies were determined by surface plasmon resonance analysis on a Biacore T100 instrument (GE Healthcare Biacore, Inc.). Antibodies were immobilized onto a CM5 sensor chip through an indirect capturing reagent, anti-human IgG Fc. Reagents from the “Human Antibody Capture Kit” (BR-1008-39, GE Healthcare Biacore, Inc.) were used as described by the manufacturer. Approximately 5000 RU monoclonal mouse anti-human IgG (Fc) antibody were immobilized per cell. Anti C4.4 antibodies were injected at a concentration of 5 μg/ml at 10 μl/min for 10 sec to reach a capturing level of approximately 200 to 600 RU. Various concentrations (400 nM, 200 nM, 100 nM, 50 nM, 25 nM, 12.5 nM, 6.25 nM, and 3.12 nM) in HEPES-EP buffer (GE Healthcare Biacore, Inc.) of human or murine C4.4a were injected over immobilized anti C4.4a antibodies at a flow rate of 60 μl/min for 3 minutes and the dissociation was allowed for 10 minutes. Sensograms were generated after in-line reference cell correction followed by buffer sample subtraction. The dissociation equilibrium constant (KD) was calculated based on the ratio of association (kₒₙ) and dissociation rated (koff) constants, obtained by fitting sensograms with a first order 1:1 binding model using Biavaluation Software (version 4.0).
With B1 the Kd was 4 nM. B8 showed a Kd of 1 nM. With B2 the Kd was 60 nM. Work on B3 yielded a Kd of 4 nM. In the case of B4, the Kd is reported as 6 nM. B5 gave a Kd of 10 nM. B6 was tested, and the Kd was 9 nM. With B9 the Kd was 29 nM. B7 gave a Kd of 2 nM.

Each binder was assayed against T3, recombinant soluble murine C4.4a in the same assay as above.
Method: as §1
B1 was tested, and the Kd was 10 nM. B8 was tested, and the Kd was 2 nM. For B2, the Kd was 120 nM. With B3 the Kd was 1 nM. In the case of B4, the Kd is reported as 21 nM. Work on B5 yielded a Kd of 24 nM. B6 showed a Kd of 22 nM. Binder B9 has a Kd of 56 nM. B7 was tested, and the Kd was 42 nM.

These binders were tested against T4, human C4.4a on transfected A549:hC4.4a … (assay: cell-based or functional assay).
B2 was tested, and the “internalization t½ [min] into A549:hC4.4a cells (CypHer 5E labeled antibody)” value (shortened to “internalization t½”) was 55 min. B3 was tested, and the “internalization t½” value was 30 min. For B4, the “internalization t½” value was 39 min. B5 was tested, and the “internalization t½” value was 22 min. In the case of B6, the “internalization t½” value is reported as 33 min.

What follows are binders tested against T5, murine C4.4a on transfected … (assay: FACS titration of IgG1 on CHO-S:mC4.4a cells).
Work on B1 yielded an EC50 of 1.2 nM. For B8, the EC50 was 1.4 nM. With B2 the EC50 was 0.36 nM. Work on B3 yielded an EC50 of 0.43 nM. Work on B4 yielded an EC50 of 1 nM. B5 showed an EC50 of 1.7 nM. Work on B6 yielded an EC50 of 0.78 nM. B7 showed an EC50 of 2 nM.
